Measurements as given in the supplement of paper PMC10724198.
± gives the standard deviation of the averaged measurements.

Tests used:
Saccharomyces cerevisiae [1] = test: protein stability index of tFT-peptide fusion (C-terminal peptide) (PSI (0-1 scale)); higher = more stable (slower turnover)
Description: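 MPS profiling in S. cerevisiae of the tFT-X12 degron library: putative degron peptides plus stable controls, 12 aa, fused to the C-terminus of a sfGFP-mCherry timer. Cells are FACS-sorted into 8 mCherry/sfGFP bins and deep-sequenced. PSI runs from 0 (unstable) to 1 (stable). Backgrounds are wild type, das1Δ and doa10Δ at 30 °C, and wild type, das1Δ, cdc34-1 and cdc53-1 at 37 °C; 2-3 technical replicates each.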

Saccharomyces cerevisiae [2] = test: as above; details: genetic background: wild type; temperature: 30 C
[3] = genetic background: cdc34-1, temperature: 37 C
[4] = genetic background: cdc53-1, temperature: 37 C
[5] = genetic background: das1 deletion, temperature: 30 C
[6] = genetic background: das1 deletion, temperature: 37 C
[7] = genetic background: doa10 deletion, temperature: 30 C
[8] = genetic background: wild type, temperature: 30 C
[9] = genetic background: wild type, temperature: 37 C
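Also: PSI is a weighted mean of sequencing reads over stability bins, variants kept only with over 10 reads, mCherry proximal and sfGFP distal, peptide attached via GGGS linker.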

Sequence | protein stability index (Saccharomyces cerevisiae [1]; [3]) | protein stability index (Saccharomyces cerevisiae [1]; [4]) | protein stability index (Saccharomyces cerevisiae [1]; [5]) | protein stability index (Saccharomyces cerevisiae [1]; [6]) | protein stability index (Saccharomyces cerevisiae [1]; [7]) | protein stability index (Saccharomyces cerevisiae [1]; [8]) | protein stability index (Saccharomyces cerevisiae [1]; [9]) | protein stability index (Saccharomyces cerevisiae [2])
ASICAFFCWFLV | 0.527 ± 0.035 | 0.58116 ± 0.00042 | 0.457 ± 0.023 | 0.601 ± 0.024 | 0.326 ± 0.0088 | 0.321 ± 0.026 | 0.497 ± 0.013 | 0.419 ± 0.022
FRVILISACESV | 0.565 ± 0.016 | 0.582 ± 0.011 | 0.403 ± 0.032 | 0.5562 ± 0.0034 | 0.384 ± 0.032 | 0.397 ± 0.019 | 0.5385 ± 0.004 | 0.464 ± 0.0071
LFWTLSKYLIIC | 0.284 ± 0.015 | 0.42 ± 0.024 | 0.34 ± 0.04 | 0.491 ± 0.011 | 0.0759 ± 0.0053 | 0.108 ± 0.013 | 0.159 ± 0.083 | 0.135 ± 0.079
PVILISWQLRCY | 0.018 ± 0.0019 | 0.0284 ± 0.0013 | 0.0318 ± 0.01 | 0.049 ± 0.011 | 0.0188 ± 0.0012 | 0.0174 ± 0.0032 | 0.0417 ± 0.0029 | 0.0229 ± 0.026
LPPFGLFLFVFI | 0.437 ± 0.034 | 0.466 ± 0.0094 | 0.31 ± 0.044 | 0.517 ± 0.0074 | 0.274 ± 0.008 | 0.285 ± 0.029 | 0.498 ± 0.01 | 0.366 ± 0.018
SVMTFVFFISAF | 0.257 ± 0.013 | 0.397 ± 0.021 | 0.243 ± 0.039 | 0.438 ± 0.021 | 0.212 ± 0.0043 | 0.238 ± 0.037 | 0.396 ± 0.0055 | 0.344 ± 0.1
WFWVAVGVVGGG | 0.496 ± 0.029 | 0.534 ± 0.022 | 0.356 ± 0.032 | 0.5243 ± 0.0031 | 0.326 ± 0.016 | 0.358 ± 0.015 | 0.5 ± 0.0082 | 0.449 ± 0.014
LGFFIFSFLILK | 0.0638 ± 0.017 | 0.0569 ± 0.025 | 0.189 ± 0.031 | 0.235 ± 0.011 | 0.263 ± 0.017 | 0.124 ± 0.036 | 0.221 ± 0.057 | 0.25 ± 0.015
PLHPSSTPATPF | 0.69 ± 0.03 | 0.741 ± 0.0032 | 0.667 ± 0.023 | 0.745 ± 0.023 | 0.677 ± 0.026 | 0.6834 ± 0.0044 | 0.722 ± 0.02 | 0.732 ± 0.034
QRFASFFFLHLS | 0.411 ± 0.069 | 0.504 ± 0.061 | 0.585 ± 0.012 | 0.6374 ± 0.0022 | 0.157 ± 0.028 | 0.142 ± 0.036 | 0.251 ± 0.011 | 0.227 ± 0.0046
LVRGSRLIVIVG | 0.444 ± 0.01 | 0.473 ± 0.028 | 0.333 ± 0.025 | 0.5181 ± 0.0045 | 0.289 ± 0.0053 | 0.328 ± 0.034 | 0.492 ± 0.019 | 0.423 ± 0.026
WCCVFVARFFWL | 0.416 ± 0.013 | 0.504 ± 0.013 | 0.348 ± 0.031 | 0.499 ± 0.014 | 0.334 ± 0.0061 | 0.342 ± 0.011 | 0.44 ± 0.008 | 0.413 ± 0.04
AYACSILRCKSS | 0.624 ± 0.015 | 0.727 ± 0.013 | 0.636 ± 0.012 | 0.713 ± 0.026 | 0.186 ± 0.016 | 0.219 ± 0.052 | 0.422 ± 0.04 | 0.34 ± 0.086
LFTRSIRNLKSL | 0.653 ± 0.057 | 0.7269 ± 0.007 | 0.664 ± 0.0086 | 0.738 ± 0.02 | 0.303 ± 0.0033 | 0.291 ± 0.0074 | 0.4521 ± 0.0027 | 0.452 ± 0.033
FNLFWPVSAFVV | 0.506 ± 0.061 | 0.563 ± 0.011 | 0.436 ± 0.03 | 0.5749 ± 0.0047 | 0.211 ± 0.0037 | 0.254 ± 0.0078 | 0.398 ± 0.044 | 0.374 ± 0.019
FAIPFVLFFRVT | 0.161 ± 0.02 | 0.134 ± 0.0062 | 0.257 ± 0.03 | 0.333 ± 0.017 | 0.2593 ± 0.0021 | 0.173 ± 0.024 | 0.231 ± 0.013 | 0.224 ± 0.07
RIIDRVSRLIML | 0.765 ± 0.026 | 0.826 ± 0.019 | 0.689 ± 0.034 | 0.765 ± 0.015 | 0.453 ± 0.021 | 0.482 ± 0.034 | 0.627 ± 0.032 | 0.543 ± 0.089
VVIWWFSAVVSV | 0.0446 ± 0.0021 | 0.138 ± 0.026 | 0.0727 ± 0.021 | 0.2 ± 0.013 | 0.0495 ± 0.014 | 0.0622 ± 0.026 | 0.165 ± 0.0031 | 0.148 ± 0.036
ARCKRSLSGGIG | 0.489 ± 0.034 | 0.579 ± 0.02 | 0.512 ± 0.012 | 0.5452 ± 0.00083 | 0.531 ± 0.0073 | 0.524 ± 0.022 | 0.54 ± 0.011 | 0.588 ± 0.14
PPPRSLSPPLLS | 0.642 ± 0.0076 | 0.7372 ± 0.0019 | 0.643 ± 0.025 | 0.704 ± 0.0013 | 0.6711 ± 0.0062 | 0.659 ± 0.014 | 0.681 ± 0.023 | 0.409 ± 0.0037

Sequence | protein stability index (Saccharomyces cerevisiae [1]; [3]) | protein stability index (Saccharomyces cerevisiae [1]; [4]) | protein stability index (Saccharomyces cerevisiae [1]; [5]) | protein stability index (Saccharomyces cerevisiae [1]; [6]) | protein stability index (Saccharomyces cerevisiae [1]; [7]) | protein stability index (Saccharomyces cerevisiae [1]; [8]) | protein stability index (Saccharomyces cerevisiae [1]; [9]) | protein stability index (Saccharomyces cerevisiae [2])
RLCKGQKYTKIN | 0.597 ± 0.014 | 0.718 ± 0.02 | 0.659 ± 0.023 | 0.707 ± 0.034 | 0.0852 ± 0.02 | 0.105 ± 0.026 | 0.155 ± 0.043 | 0.105 ± 0.015
FGCLFILRCSFL | 0.429 ± 0.047 | 0.487 ± 0.00067 | 0.349 ± 0.035 | 0.5384 ± 0.00075 | 0.29 ± 0.0031 | 0.304 ± 0.026 | 0.4966 ± 0.0043 | 0.422 ± 0.0099
FSFPAFTFIVSI | 0.352 ± 0.03 | 0.346 ± 0.006 | 0.336 ± 0.024 | 0.475 ± 0.024 | 0.502 ± 0.031 | 0.329 ± 0.0099 | 0.447 ± 0.035 | 0.4357 ± 0.0022
RRRGIYARASVV | 0.636 ± 0.018 | 0.728 ± 0.019 | 0.647 ± 0.019 | 0.723 ± 0.017 | 0.249 ± 0.0044 | 0.276 ± 0.043 | 0.434 ± 0.023 | 0.382 ± 0.015
SYGNGIPIRMLH | 0.656 ± 0.035 | 0.707 ± 0.026 | 0.641 ± 0.013 | 0.728 ± 0.013 | 0.204 ± 0.013 | 0.217 ± 0.013 | 0.422 ± 0.05 | 0.329 ± 0.014
CVFVRCVDCMSG | 0.553 ± 0.013 | 0.544 ± 0.041 | 0.384 ± 0.031 | 0.594 ± 0.0081 | 0.354 ± 0.034 | 0.387 ± 0.015 | 0.579 ± 0.0085 | 0.465 ± 0.024
PFGPTFSPRPFR | 0.727 ± 0.048 | 0.767 ± 0.011 | 0.684 ± 0.015 | 0.7793 ± 0.0072 | 0.692 ± 0.023 | 0.701 ± 0.013 | 0.747 ± 0.0083 | 0.773 ± 0.022
VFFLFAVCSVLV | 0.0858 ± 0.0079 | 0.18 ± 0.0095 | 0.106 ± 0.029 | 0.2738 ± 0.0011 | 0.0641 ± 0.0032 | 0.0857 ± 0.033 | 0.248 ± 0.04 | 0.152 ± 0.02
YIFLLRFFFFFS | 0.367 ± 0.014 | 0.435 ± 0.0084 | 0.333 ± 0.042 | 0.515 ± 0.03 | 0.299 ± 0.011 | 0.304 ± 0.044 | 0.435 ± 0.022 | 0.358 ± 0.028
WLGLFAFRRCLV | 0.544 ± 0.03 | 0.583 ± 0.013 | 0.463 ± 0.018 | 0.5898 ± 0.0041 | 0.194 ± 0.012 | 0.223 ± 0.025 | 0.3983 ± 0.0017 | 0.31 ± 0.018
FVVHPARYYLVL | 0.558 ± 0.077 | 0.682 ± 0.019 | 0.595 ± 0.023 | 0.664 ± 0.017 | 0.355 ± 0.0048 | 0.385 ± 0.02 | 0.489 ± 0.014 | 0.4265 ± 0.0029
HSPPVPFPPPTS | 0.647 ± 0.068 | 0.733 ± 0.035 | 0.651 ± 0.034 | 0.72 ± 0.0074 | 0.688 ± 0.012 | 0.672 ± 0.017 | 0.694 ± 0.024 | 0.358 ± 0.033
SPLLPPPLLFLS | 0.596 ± 0.056 | 0.7307 ± 0.0032 | 0.6555 ± 0.0025 | 0.729 ± 0.009 | 0.1475 ± 0.0013 | 0.168 ± 0.033 | 0.241 ± 0.033 | 0.211 ± 0.0097
SFWLFSSIGVCF | 0.594 ± 0.035 | 0.5958 ± 0.004 | 0.461 ± 0.031 | 0.578 ± 0.017 | 0.4316 ± 0.00081 | 0.465 ± 0.011 | 0.5772 ± 0.0052 | 0.512 ± 0.019
RSLSFGMVLCYS | 0.358 ± 0.027 | 0.366 ± 0.0079 | 0.248 ± 0.041 | 0.4382 ± 0.0025 | 0.228 ± 0.012 | 0.253 ± 0.028 | 0.401 ± 0.012 | 0.343 ± 0.029
IFVLLSYYPLFV | 0.263 ± 0.016 | 0.279 ± 0.012 | 0.265 ± 0.019 | 0.422 ± 0.012 | 0.288 ± 0.016 | 0.243 ± 0.027 | 0.391 ± 0.0059 | 0.338 ± 0.018
VLVFYFCFSFCS | 0.144 ± 0.013 | 0.282 ± 0.043 | 0.126 ± 0.025 | 0.297 ± 0.0048 | 0.11 ± 0.015 | 0.129 ± 0.029 | 0.273 ± 0.016 | 0.205 ± 0.049
YTCFLFLLRCMT | 0.303 ± 0.048 | 0.3521 ± 0.00065 | 0.261 ± 0.044 | 0.415 ± 0.0047 | 0.1757 ± 0.00026 | 0.198 ± 0.024 | 0.294 ± 0.002 | 0.292 ± 0.003
YSRFALRPQLLV | 0.553 ± 0.051 | 0.634 ± 0.013 | 0.512 ± 0.025 | 0.62 ± 0.029 | 0.172 ± 0.0042 | 0.184 ± 0.024 | 0.327 ± 0.0056 | 0.285 ± 0.011
